This note sets out measurements from article PMC10066210, “The structural basis of the pH-homeostasis mediated by the Cl^−/HCO3^− exchanger, AE2” (Nature Communications, 2023).

This data set concerns the molecule itself. The data set is described as follows: cryo-EM structure; hAE2 in GDN, about 10 mg/mL; samples in KNO3 pH 7.25 to 6.55, Tris-HCl pH 8.32, NaCl, 50 mM NaHCO3, or DIDS with NaHCO3; C2 symmetry (one class C1).

B1: human anion exchanger 2 (AE2), residues 177-1241 (natural protein, UniProt P04920 177-1241, looked up)
chain: LPHQEATPRASKGAQAGTQVEEAEAEAVAVASGTAGGDDGGASGRPLPKAQPGHRSYNLQERRRIGSMTGAEQALLPRVPTDEIEAQTLATADLDLMKSHRFEDVPGVRRHLVRKNAKGSTQSGREGREPGPTPRARPRAPHKPHEVFVELNELLLDKNQEPQWRETARWIKFEEDVEEETERWGKPHVASLSFRSLLELRRTLAHGAVLLDLDQQTLPGVAHQVVEQMVISDQIKAEDRANVLRALLLKHSHPSDEKDFSFPRNISAGSLGSLLGHHHGQGAESDPHVTEPLMGGVPETRLEVERERELPPPAPPAGITRSKSKHELKLLEKIPENAEATVVLVGCVEFLSRPTMAFVRLREAVELDAVLEVPVPVRFLFLLLGPSSANMDYHEIGRSISTLMSDKQFHEAAYLADEREDLLTAINAFLDCSVVLPPSEVQGEELLRSVAHFQRQMLKKREEQGRLLPTGAGLEPKSAQDKALLQMVEAAGAAEDDPLRRTGRPFGGLIRDVRRRYPHYLSDFRDALDPQCLAAVIFIYFAALSPAITFGGLLGEKTQDLIGVSELIMSTALQGVVFCLLGAQPLLVIGFSGPLLVFEEAFFSFCSSNHLEYLVGRVWIGFWLVFLALLMVALEGSFLVRFVSRFTQEIFAFLISLIFIYETFYKLVKIFQEHPLHGCSASNSSEVDGGENMTWAGARPTLGPGNRSLAGQSGQGKPRGQPNTALLSLVLMAGTFFIAFFLRKFKNSRFFPGRIRRVIGDFGVPIAILIMVLVDYSIEDTYTQKLSVPSGFSVTAPEKRGWVINPLGEKSPFPVWMMVASLLPAILVFILIFMETQITTLIISKKERMLQKGSGFHLDLLLIVAMGGICALFGLPWLAAATVRSVTHANALTVMSKAVAPGDKPKIQEVKEQRVTGLLVALLVGLSIVIGDLLRQIPLAVLFGIFLYMGVTSLNGIQFYERLHLLLMPPKHHPDVTYVKKVRTLRMHLFTALQLLCLALLWAVMSTAASLAFPFILILTVPLRMVVLTRIFTDREMKCLDANEAEPVFDEREGVDEYNEMPMPV
notes: Anion exchanger 2 (AE2, SLC4A2), human; A TEV protease site lies between the N-terminal Flag-8xHis tags and AE2; Solubilised in LMNG/CHS/GDN and kept in GDN; Residues 1-319, 433-498, 643-672 and 856-893 are not modelled in the structures; also called hAE2; AE2^177-1241; source: Expi293 cells, transiently transfected, purified (anti-Flag beads, SEC in GDN)
What is called stoichiometry N is a count of units in the complex or per binding partner. Take B1: the “stoichiometry N” value turned out to be 2.
